T1: Homo sapiens glycogen synthase GS2 (GYS2), amino acids 1-703 (human, UniProt P54840 1-703)
T1 construct: glycogen synthase GS2 (GYS2), Homo sapiens, UniProt P54840, amino acids 1-703; The methods say that the His tag was put at the N-terminus of 'GS' without telling GS1 and GS2 apart; source: baculovirus (Bac-to-Bac), purified with GYG2
T1 sequence (looked up): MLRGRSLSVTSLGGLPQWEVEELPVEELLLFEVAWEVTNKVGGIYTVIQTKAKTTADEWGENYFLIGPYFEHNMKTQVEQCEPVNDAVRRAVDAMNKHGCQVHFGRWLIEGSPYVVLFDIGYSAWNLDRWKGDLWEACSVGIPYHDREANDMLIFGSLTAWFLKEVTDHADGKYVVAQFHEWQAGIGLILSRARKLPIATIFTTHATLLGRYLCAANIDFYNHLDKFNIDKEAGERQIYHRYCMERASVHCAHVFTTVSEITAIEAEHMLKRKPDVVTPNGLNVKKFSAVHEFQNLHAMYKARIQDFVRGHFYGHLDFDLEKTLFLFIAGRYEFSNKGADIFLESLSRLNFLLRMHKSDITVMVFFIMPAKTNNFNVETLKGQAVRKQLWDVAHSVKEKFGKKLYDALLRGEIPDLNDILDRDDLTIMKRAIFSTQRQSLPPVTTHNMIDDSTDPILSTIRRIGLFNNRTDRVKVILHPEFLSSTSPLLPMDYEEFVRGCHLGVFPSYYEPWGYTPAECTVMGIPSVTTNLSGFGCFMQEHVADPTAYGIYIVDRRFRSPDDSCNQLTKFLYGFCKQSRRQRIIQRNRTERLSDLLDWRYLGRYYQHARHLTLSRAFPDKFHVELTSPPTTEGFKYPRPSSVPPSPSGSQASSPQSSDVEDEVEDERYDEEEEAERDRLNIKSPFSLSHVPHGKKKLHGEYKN

B1: Homo sapiens wild-type GYG2 (glycogenin-2) (enzyme, human, UniProt O15488-1 1-501, looked up)
chain: MSETEFHHGAQAGLELLRSSNSPTSASQSAGMTVTDQAFVTLATNDIYCQGALVLGQSLRRHRLTRKLVVLITPQVSSLLRVILSKVFDEVIEVNLIDSADYIHLAFLKRPELGLTLTKLHCWTLTHYSKCVFLDADTLVLSNVDELFDRGEFSAAPDPGWPDCFNSGVFVFQPSLHTHKLLLQHAMEHGSFDGADQGLLNSFFRNWSTTDIHKHLPFIYNLSSNTMYTYSPAFKQFGSSAKVVHFLGSMKPWNYKYNPQSGSVLEQGSASSSQHQAAFLHLWWTVYQNNVLPLYKSVQAGEARASPGHTLCHSDVGGPCADSASGVGEPCENSTPSAGVPCANSPLGSNQPAQGLPEPTQIVDETLSLPEGRRSEDMIACPETETPAVITCDPLSQPSPQPADFTETETILQPANKVESVSSEETFEPSQELPAEALRDPSLQDALEVDLAVSVSQISIEEKVKELSPEEERRKWEEGRIDYMGKDAFARIQEKLDRFLQ
notes: glycogenin-2 (GYG2), Homo sapiens, UniProt O15488-1, full-length; Two vectors are named (MultiBac pACEBac1 with full-length GYG2; Bac-to-Bac with wild-type GYG2 O15488-1); source: Sf9, co-infected with GS baculovirus, purified with GS (Ni-NTA, Superose 6); also isolated alone
B2: Homo sapiens GYG2 Y228F mutant (enzyme, human, UniProt O15488-1 1-501, looked up)
chain: B1 chain with Y228F
notes: glycogenin-2 (GYG2), Homo sapiens, UniProt O15488-1, putative autoglycosylation site mutated; also called GYG2 Y229F mutant (methods); source: baculovirus (Bac-to-Bac), purified with GS
B3: Homo sapiens glycogen synthase GS1 (GYS1), amino acids 1-737, N-terminal hexahistidine tag (enzyme, human, UniProt P13807 1-737, looked up)
chain: MPLNRTLSMSSLPGLEDWEDEFDLENAVLFEVAWEVANKVGGIYTVLQTKAKVTGDEWGDNYFLVGPYTEQGVRTQVELLEAPTPALKRTLDSMNSKGCKVYFGRWLIEGGPLVVLLDVGASAWALERWKGELWDTCNIGVPWYDREANDAVLFGFLTTWFLGEFLAQSEEKPHVVAHFHEWLAGVGLCLCRARRLPVATIFTTHATLLGRYLCAGAVDFYNNLENFNVDKEAGERQIYHRYCMERAAAHCAHVFTTVSQITAIEAQHLLKRKPDIVTPNGLNVKKFSAMHEFQNLHAQSKARIQEFVRGHFYGHLDFNLDKTLYFFIAGRYEFSNKGADVFLEALARLNYLLRVNGSEQTVVAFFIMPARTNNFNVETLKGQAVRKQLWDTANTVKEKFGRKLYESLLVGSLPDMNKMLDKEDFTMMKRAIFATQRQSFPPVCTHNMLDDSSDPILTTIRRIGLFNSSADRVKVIFHPEFLSSTSPLLPVDYEEFVRGCHLGVFPSYYEPWGYTPAECTVMGIPSISTNLSGFGCFMEEHIADPSAYGIYILDRRFRSLDDSCSQLTSFLYSFCQQSRRQRIIQRNRTERLSDLLDWKYLGRYYMSARHMALSKAFPEHFTYEPNEADAAQGYRYPRPASVPPSPSLSRHSSPHQSEDEEDPRNGPLEEDGERYDEDEEAAKDRRNIRAPEWPRRASCTSSTSGSKRNSVDTATSSSLSTPSEPLSPTSSLGEERN
notes: glycogen synthase GS1 (GYS1), Homo sapiens, UniProt P13807, amino acids 1-737; No cleavage of the His tag is described; the complexes were captured on Ni-NTA by it; The cryo-EM complex is called heterooctameric (D2 symmetry imposed); source: Sf9, co-infected with a GYG baculovirus, purified (Ni-NTA, Superose 6); not shown: His6 (PreScission protease-cleavable), N-terminal, kept
B4: Homo sapiens wild-type GYG1 (glycogenin-1) (enzyme, human, UniProt P46976-2 1-333, looked up)
chain: MTDQAFVTLTTNDAYAKGALVLGSSLKQHRTTRRLVVLATPQVSDSMRKVLETVFDEVIMVDVLDSGDSAHLTLMKRPELGVTLTKLHCWSLTQYSKCVFMDADTLVLANIDDLFDREELSAAPDPGWPDCFNSGVFVYQPSVETYNQLLHLASEQGSFDGGDQGILNTFFSSWATTDIRKHLPFIYNLSSISIYSYLPAFKVFGASAKVVHFLGRVKPWNYTYDPKTKSVKSEAHDPNMTHPEFLILWWNIFTTNVLPLLQQFGLVKDTCSYVNVEDVSGAISHLSLGEIPAMAQPFVSSEERKERWEQGQADYMGADSFDNIKRKLDTYLQ
modifications: autoglycosylated (smear on blots; glucose polymer on Y195)
notes: glycogenin-1 (GYG1), Homo sapiens, UniProt P46976-2; also called GYG1 (WT); source: Sf9, co-infected with GS baculovirus, purified with GS (Ni-NTA, Superose 6)
B5: Homo sapiens GYG1 Y195F mutant (enzyme, human, UniProt P46976-2 1-333, looked up)
chain: B4 chain with Y195F
notes: glycogenin-1 (GYG1), Homo sapiens, UniProt P46976-2, autoglycosylation site mutated; source: Sf9, co-infected with GS baculovirus, purified with GS (Ni-NTA, Superose 6)

The target of data set [1] is T1, Homo sapiens glycogen synthase GS2 …. Briefly: SEC; co-expressed in insect cells, captured on Ni-NTA by the His6 tag of GS, then Superose 6 16/60; SDS-PAGE and Western blot of peak fractions. The note with it: both partners purified. For orientation: SEC sorts molecules by how far they enter the pores of the column.
For data set [2], the target named is B3. The data set is described as above. The note with it: both partners purified.
Data set [3] concerns the molecule itself. As to the kind of experiment: cryo-EM structure; purified GS•GYG2 complex from SEC peak fractions at ~2 mg/mL; Titan Krios 300 keV; D2 symmetry imposed.

Numbering of substitutions follows the chain as printed. In names and notes the source's numbering stands.

As for B1, the binding result in data set [1] is “binds”.
On to B2, for which the binding result in data set [2] was “binds”.
Consider B3, for which the binding result in data set [3] is listed as “binds”.
B4: the binding result in data set [2] is “binds”.
In the case of B5, in data set [2], the binding result is “binds”.

(Values after article PMC12267440, “Human glycogenins maintain glucose homeostasis by regulating glycogen metabolism” (Nature Communications, 2025).)
